Source: patent EP4062934A1 (CentricsBio, Inc., dated 2022)

Biological target: T1, CD300c antigen (UniProt Q08708 21-183, limits assumed)
T1 construct: also called CD300c protein
T1 sequence (looked up): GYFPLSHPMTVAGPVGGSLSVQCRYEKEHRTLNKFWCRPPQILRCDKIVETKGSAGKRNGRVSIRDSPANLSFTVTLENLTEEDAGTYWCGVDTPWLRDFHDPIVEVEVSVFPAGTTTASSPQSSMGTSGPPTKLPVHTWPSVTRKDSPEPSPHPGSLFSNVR
Experiment: binding ELISA, antigen coated, anti-Fc HRP detection

EC50: 49.7 µg/mL
B1: anti-CD300c monoclonal antibody CL8 (antibody, V domains shown)
VH: EVQLLESGGGLVQPGGSLRLSCAASGFTFSSYAMSWVRQAPGKGLEWVSAISGSGGSTYYADSVKGRFTISRNNSKNTLYLQMNSLRAEDTAVYYCARSGRYADLTSGGQGTLVTVSS
VL: QSVLTQPPSASGTPGQRVTISCSGSNSNIGNNYVSWYQQLPDTPPKLLIYDNNKRPSGVPDRFSGSKSGTSASLAISGLRSEDEADYYCSSYTSSSTVMFGGGTKLTVL
